Values quoted from earlier work in publication PMC10357296.
pKd: −log10 of the molar value.

Biological target: IL-18 (Homo sapiens) (UniProt Q14116)
Sequence (Q14116 37-193): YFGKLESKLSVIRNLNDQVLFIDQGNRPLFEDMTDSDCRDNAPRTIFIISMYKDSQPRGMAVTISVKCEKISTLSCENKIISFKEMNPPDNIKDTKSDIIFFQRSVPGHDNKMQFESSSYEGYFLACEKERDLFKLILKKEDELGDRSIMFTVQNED

Chain of IL-18BP (O95998 31-194): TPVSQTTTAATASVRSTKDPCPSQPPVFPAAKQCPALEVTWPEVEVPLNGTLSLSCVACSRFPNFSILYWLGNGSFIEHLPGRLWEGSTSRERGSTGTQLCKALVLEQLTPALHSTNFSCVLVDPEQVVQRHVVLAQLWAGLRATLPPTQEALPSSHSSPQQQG

IL-18BP (from UniProt O95998)
pKd: > 9.00
